We go through one substance from patent US6946133.

In this assay the target is HLA class I-A2 molecule (human) (UniProt P04439). Nature of the assay: T2 binding assay, peptide 50 µg/ml for 24 h, anti-HLA-A2 mAb, flow cytometry; cut off for positivity 100.

With “PSA [42-51] (from UniProt P07288 66-75) (peptide)”, the T2 binding, relative fluorescence (mean intensity) was determined as 51.4.
